Measurements as given in PMC5379943 (The Journal of Cell Biology, 2017).

Target: T1, His-PLEKHM1 (1–300) (UniProt Q9Y4G2 1-300)
T1 construct: PLEKHM1, residues 1–300; also called His-tagged PLEKHM1 (1–300); source: purified
Assay: pull-down; competition: GST-Arl8b as bait incubated with His-PLEKHM1 (1–300) and increasing concentrations of MBP-SKIP (1–300); immunoblot
Conditions: both partners purified

- binding result: binds
B1: GST-Arl8b (natural protein, UniProt Q9NVJ2 1-186, looked up)
chain: MLALISRLLDWFRSLFWKEEMELTLVGLQYSGKTTFVNVIASGQFSEDMIPTVGFNMRKVTKGNVTIKIWDIGGQPRFRSMWERYCRGVNAIVYMIDAADREKIEASRNELHNLLDKPQLQGIPVLVLGNKRDLPNALDEKQLIEKMNLSAIQDREICCYSISCKEKDNIDITLQWLIQHSKSRRS
notes: Arl8b small GTPase; source: E. coli BL21, purified on glutathione resin
